Each block holds one binder with its values, some of them ahead of it. Ends that are not written are not given here. * marks the point of attachment. Biotin = O=C1N[C@H]2[C@H](CS[C@H]2CCCCC(=O)*)N1
Experiments:
Conditions in all cases: both partners purified
[1] = biological target: His-GRASP55 PDZ12 (Histidine-tagged PDZ tandem of GRASP55, aa 2-208) (mouse, UniProt Q99JX3 2-208); test: ITC; GRASP55 protein in the cell (70-150 uM), JAM peptide in the syringe (800-2250 uM); 298 K (25 °C); 100 mM NaPO4 buffer pH 7.5; MicroCal ITC200; one-site fit
[2] = biological target: T1, GST-GRASP55 FL (GST-tagged GRASP55 full-length, aa 2-451) (mouse, UniProt Q99JX3 2-451); test: as above
T1 construct: Gateway cloning into pDEST15; also called mGRASP55 Full-length (FL); Golgi reassembly stacking protein of 55 kDa; source: E. coli BL21 (DE3), purified (Glutathione sepharose 4B); not shown: GST, N-terminal, kept

[3] = biological target: T2, GST-GRASP55 FL (mGRASP55 Full-length, aa 2-451) (mouse, UniProt Q99JX3 2-451); test: AlphaScreen or HTRF; GST fusion protein, anti-GST antibody coupled to terbium cryptate (1 nM), streptavidin-d2 (1.25 nM), biotinylated peptide (6 nM), competed with non-biotinylated peptide or the compound Graspin; 0.05 M HEPES, 0.15 M NaCl, 0.25% BSA pH 7.3, 18 h, 4°C
T2 construct: GRASP55, mouse, aa 2-451, called full-length (FL); Forward primers with and without a thrombin cleavage site were used; also called full-length GRASP55 protein; source: E. coli BL21 (DE3), purified (Glutathione sepharose 4B); not shown: GST, N-terminal, kept

[4] = biological target: GRASP55 PDZ12, untagged PDZ tandem of GRASP55 (mouse, UniProt Q99JX3 2-208); test: ITC; GRASP55 protein in the cell (70-150 uM), JAM peptide in the syringe (800-2250 uM); 298 K (25 °C); 100 mM NaPO4 buffer pH 7.5; MicroCal ITC200; one-site fit
[5] = biological target: T2, GST-GRASP55 FL (mGRASP55 Full-length, …); test: AlphaScreen or HTRF + ITC; the text names HTRF or ITC for the values without telling which; GST-GRASP55 FL with JAM peptides; HTRF: biotinylated peptide competed with unlabeled peptide, 0.05 M HEPES, 0.15 M NaCl, 0.25% BSA pH 7.3, 18 h, 4°C; ITC: peptide in the syringe, protein in the cell, 100 mM NaPO4 pH 7.5, 25°C

B1: JAM-A peptide, carboxy-terminal 19-mer (peptide)
peptide: SQPSTRSEGEFKQTSSFLV
notes: Junctional Adhesion Molecule-A (JAM-A), carboxy-terminal 19 amino acids; source: synthetic peptide (Covalab, France)
- Kd [1]: 14 ± 1 µM
- stoichiometry N [1]: 0.9
- stoichiometry N [2]: 0.8

B4: JAM-B peptide, carboxy-terminal 19-mer (JAM-B_P19) (peptide)
peptide: SKVTTMSENDFKHTKSFII
notes: Junctional Adhesion Molecule-B (JAM-B), mouse, carboxy-terminal 19 amino acids; source: synthetic peptide (Covalab, France)
- Kd [1]: 1.2 ± 0.1 µM
- stoichiometry N [1]: 1.3
- stoichiometry N [2]: 0.9

B5: JAM-C peptide, carboxy-terminal 19-mer (JAM-C_P19) (peptide)
peptide: NYIRTSEEGDFRHKSSFVI
notes: Junctional Adhesion Molecule-C (JAM-C), mouse, encoded by Jam3, carboxy-terminal 19 amino acids; source: synthetic peptide (Covalab, France)
- Kd [1]: 7.1 ± 0.1 µM
- stoichiometry N [1]: 1
- Kd [4]: 3.8 ± 0.1 µM
- stoichiometry N [4]: 1.1
- stoichiometry N [2]: 1

B7: JAM-C_P19, peptide corresponding to the C-terminal 19-mer of mouse JAM-C (unlabeled) (peptide)
peptide: NYIRTSEEGDFRHKSSFVI
notes: JAM-C, mouse, C-terminal 19-mer; the homologous non-biotinylated form of the printed biotinylated peptide; also called JAM-C peptide; source: synthetic peptide
- Kd [5]: 3.7 µM

B8: JAM-B_P19, peptide corresponding to the C-terminal 19-mer of mouse JAM-B (unlabeled) (peptide)
peptide: SKVTTMSENDFKHTKSFII
notes: JAM-B, mouse, C-terminal 19-mer; the homologous non-biotinylated form of the printed biotinylated peptide; also called JAM-B peptide; source: synthetic peptide
- Kd [5]: 4.9 µM

Results, then the binder that gave them:

- binding result [3]: binds
B2: Biotinylated 19-mer peptide of the carboxy-terminal sequence of JAM-C (peptide)
peptide: Biotin-NYIRTSEEGDFRHKSSFVI
notes: JAM-C, mouse, carboxy-terminal 19 amino acids; source: synthetic peptide (Covalab, France)

- binding result [3]: binds
B3: Biotinylated 19-mer peptide of the carboxy-terminal sequence of JAM-A (peptide)
peptide: Biotin-SQPSTRSEGEFKQTSSFLV
notes: JAM-A, carboxy-terminal 19 amino acids; source: synthetic peptide (Covalab, France)

- binding result [3]: binds
B6: Biotinylated 19-mer peptide of the carboxy-terminal sequence of JAM-B (peptide)
peptide: Biotin-SKVTTMSENDFKHTKSFII
notes: JAM-B, mouse, carboxy-terminal 19 amino acids; source: synthetic peptide (Covalab, France)

- Kd [5]: 27 µM
B9: Unlabeled (non-biotinylated) JAM-A carboxy-terminal 19-mer peptide (peptide)
peptide: SQPSTRSEGEFKQTSSFLV
notes: JAM-A, carboxy-terminal 19 amino acids; the homologous non-biotinylated form of the printed biotinylated peptide; source: synthetic peptide

— paper PMC5472279, “Genetic, structural, and chemical insights into the dual function of GRASP55 in germ cell Golgi remodeling and JAM-C polarized localization during spermatogenesis” (PLoS Genetics, 2017)
